Results taken from the supplement of paper PMC9170038.

System: MS2 coat protein
Test: apparent KD of MS2 coat protein; designed switch direction (-1 OFF switch, 1 ON switch): 1; higher = weaker reporter binding
Summary of the method: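 An oligonucleotide input, 200 uM small-molecule ligand, or no input was present during titration of SNAP-549-labelled MS2 coat protein, which was doubled from 0.7 or 1.5 nM to 3 µM. Designed RNA switches had been transcribed on Illumina chips by stalled E. coli RNA polymerase. Apparent KD per design is the median over clusters of curves fitted to normalised cluster fluorescence.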

[1] = Eterna round: R95, input ligand: FMN 200 uM
[2] = Eterna round: R95, input ligand: microRNA oligo, concentration not stated
[3] = Eterna round: R95, input ligand: none
[4] = input ligand: microRNA oligo, concentration not stated

Sequence | apparent KD of MS2 coat protein [1] | apparent KD of MS2 coat protein [2] | apparent KD of MS2 coat protein [3] | apparent KD of MS2 coat protein (input ligand: FMN 200 uM) | apparent KD of MS2 coat protein [4] | apparent KD of MS2 coat protein (input ligand: none)
AGUCCAGCCUGAGCUGGACAAAAGCAUGUACAUGAGGAUCACCCAUGUUAUGUACAAGCUUUUUGCUCGUCUUAAUA [Zipper 49 - 10] (puzzle: Sensor for hsa-mir-208a) | 165 nM | 14.3 nM | 238 nM |  |  | 
GUCAGGCAAGCUUUUUUCUCGUAGUGUAAACAUGAGGAUCACCCAUGUGCUCGCCCUGGAUCUUUGGAUCGCGGAAA [Xeatesis] (puzzle: Sensor for hsa-mir-208a) | 34.6 nM | 19.8 nM | 36.5 nM |  |  | 
AGAUCAUGACGAGGAUAUGGUACAUGAGGAUCACCCAUGUAUGUAUCAUAACGCGAAUGACGAAUCCAGAAGGCGUCGUGGUCA [JL SSNG2 1.12] (Eterna round: R96, puzzle: Same State NG 2) |  |  |  | 9.94 nM | 14.7 nM | 22.7 nM
UUAAUAAUGUUAGGAUAUACAUGAGGAAUCCUCGUAGAAGGAACAUGACAUGAGGAUCACCCAUGUAGCGCUCAGAAGAGCGCA [Mat - Same State NG 1 - JL mod - D47] (Eterna round: R96, puzzle: Same State NG 1) |  |  |  | 138 nM | 31.3 nM | 135 nM
CCGAUGUGGGUACAGGAUAUGUGGGCCUCCACAUGAGGAUCACCCAUGUCGGAGGCAAAGCGGCUACAGAAGGGUGCGUGCUCGA [Riinceer] (puzzle: Same State 2) | 13.1 nM | 11.3 nM | 12.3 nM |  |  | 
UUAAUAAUGAUAGGAUAUACAUGAGGAAUUCUCGUAGAAGGAUCAUGACAUGAGGAUCACCCAUGUAACGCUCAGAAGAGCGUA [Mat - Same State NG 1 - JL mod - D37] (Eterna round: R96, puzzle: Same State NG 1) |  |  |  | 493 nM | 184 nM | 730 nM
UCUUGGUUUUUGCUCGUUUUUUGUGUUGAACAUGAGGAUCACCCAUGUAUUGUACGGUCCGAUUUGAUAAUGGUCCA [JMF 41] (puzzle: Sensor for hsa-mir-208a) | 36.3 nM | 19.2 nM | 37.4 nM |  |  | 
AGCUAUUAAUCAGGAUAUAGGGACAUGAGGAUCACCCAUGUAUAAAUGAUGAAAUGUGGUCACCUCUAGAAGGGAUUACUAACA [SameState NG2 #43] (Eterna round: R96, puzzle: Same State NG 2) |  |  |  | 42.7 nM | 29 nM | 40.4 nM
AGUCCAGCCUGAGCUGGACAAAAGCAUGUACAUGAGGAUCACCCAUGUUCAUGUACAAGCUUUUUGCUCGUAUUAAA [Mat - hsa-mir-208a - Mod of JL - 52] (puzzle: Sensor for hsa-mir-208a) | 555 nM | 14.8 nM | 566 nM |  |  | 
CAUCUCCCUUUUACAUGAGGAUCACCCAUGUUUUUAUAAUGAGAGGAUAUCGUAUUUAGAAACAUCGAGAAGGCUCAAUUGUAU [JR_SSNG3_Sub071] (Eterna round: R96, puzzle: Same State NG 3) |  |  |  | 131 nM | 93 nM | 153 nM
CGUCCAGCCUGAGCUGGACAAAAGCAUGUACAUGAGGAUCACCCAUGUUCAUGUACAAGCUUUUUGCUCGUCUUAUG [salish99_208a_r3_054] (Eterna round: R96, puzzle: Sensor for hsa-mir-208a) |  |  |  | 485 nM | 16.4 nM | 607 nM
UGUUAACAUGAGGAUCACCCAUGUCAAAUGAAUCGAGGAUAUGGGAAGUAAUAAGAUAAACCAGAAGGCGAAGUUG [Altered State 1-16 - Jieux - Same State 1] (puzzle: Same State 1) | 54.7 nM | 302 nM | 229 nM |  |  | 
AAAAUGUGAUGUUACAUGAGGAUCACCCAUGUAGUGACAACUAAGGAUAUCCGAAAAAAAGGAGAGGAGAAGGUAGGAUCACAA [AK SSNG3-V2-16.2] (Eterna round: R96, puzzle: Same State NG 3) |  |  |  | 18.3 nM | 33.3 nM | 46.3 nM
ACACCACAUGAGGAUCACCCAUGUGUCAAUAACACAGGAUAUCACCCGGAAAACAACGGGUGAGAAGGGUGACCGA [Edan] (puzzle: Same State 1) | 107 nM | 44.6 nM | 75.8 nM |  |  | 
GGUCUAGUUACAGGAUAUGCUAUCCUUUGGGUAGCAGAAGGGUGGUAACAUGAGGAUCACCCAUGUGGGCCAGGGCGUGAGCCC [JL SSNG1 1.00] (Eterna round: R96, puzzle: Same State NG 1) |  |  |  | 770 nM | 981 nM | 1260 nM
GGUCGGACUCACAUGAGGAUCACCCAUGUUGCGGAAACGCCAUAGGAUAUCUGUCCGAAAAGGUCAGAGAAGGGUGAACCGACC [Fiskers NG3ss - 65] (Eterna round: R96, puzzle: Same State NG 3) |  |  |  | 515 nM | 391 nM | 572 nM
GGAAUAUUUACAGGAUAUGAUUUGUAAAUUCGAUCAGAAGGGUAGAUGUCUUACACGGUUUGUUACAUGAGGAUCACCCAUGUU [SameState NG1 #11] (Eterna round: R96, puzzle: Same State NG 1) |  |  |  |  | 109 nM | 
GUGGUCAGACAUGAGGAUCACCCAUGUGGAAUAAAUAACGUCAAGGAUAUAUAAUAUAGGAUAUAAUAGAAGGUGAGAUUGGUG (Eterna round: R96, puzzle: Same State NG 3) |  |  |  | 108 nM | 107 nM | 119 nM
ACAUGAGACCUAGGAUAUGUUGUACCUACAUGUGACAUGAGGAUCACCCAUGUGGUAAGUAUGAGACAGAAGGAGGAGAUAUGU [Equivalence 28 - Jieux - Same State NG 2] (Eterna round: R96, puzzle: Same State NG 2) |  |  |  | 12.8 nM | 21.2 nM | 32 nM
AGGUAACAUGAGGAUCACCCAUGUACCAAUAAUGCAGGAUAUCGACACGAAAAUACGUGUCGAGAAGGGCAUGAAA [SS1 MT 22] (Eterna round: R96, puzzle: Same State 1) |  |  |  | 10.3 nM | 9.09 nM | 12.5 nM
UUAACAUGAGGAUCACCCAUGUAUAGGGAGUUUGCAAUUUGACAGGAUAUUGAAGAUGUAGAUAGCAAGAAGGGUCGGUAGUCU [JR_SSNG3_Sub004] (Eterna round: R96, puzzle: Same State NG 3) |  |  |  | 46.1 nM | 32.4 nM | 43.9 nM
GGAAUAUGAUGUUACAUGAGGAUCACCCAUGUAGUAAUAACUAAGGAUAUCUGUUAAGAUAACUAAGAGAAGGUAGGAUCAUAA [AK SSNG3-V2-8.4] (Eterna round: R96, puzzle: Same State NG 3) |  |  |  | 22.2 nM | 20.5 nM | 22.1 nM
UUCCCAGCGGGAGGAUAUGGUGCCUUGUUGGUGCUAGAAGGUCCAACAUGAGGAUCACCCAUGUGGGAGUGGUUGAGAGACCUC [SS NG10LRO11] (Eterna round: R96, puzzle: Same State NG 1) |  |  |  | 225 nM | 200 nM | 274 nM
CCAAAGUACAAUUUAGAUCUACAUGAGGAUCACCCAUGUACUGAGGAUAUCAGCUCGAAUAGAGCUGAGAAGGCAGAAUUAAUU [SSNG3/4-A1] (Eterna round: R96, puzzle: Same State NG 3) |  |  |  | 155 nM | 155 nM | 317 nM
UGAACCUUCACAGGAUAUCAUGCGAAAAUUGCGUGAGAAGGGUGGAUGUGGCGUUCAAAGAUGCACAUGAGGAUCACCCAUGUA [SameState NG1 #49] (Eterna round: R96, puzzle: Same State NG 1) |  |  |  | 162 nM | 113 nM | 191 nM
CCAUAGUACAAUUUAGAUCUACAUGAGGAUCACCCAUGUACUGAGGAUAUCAGCUCGUUUAGAGCUGAGAAGGCAGAAUUAAUU [SSNG3/5-A3] (Eterna round: R96, puzzle: Same State NG 3) |  |  |  | 57.1 nM | 116 nM | 112 nM
UAAACUUCUUUUAGUGUGUUGCCAGUUUUACAUGAGGAUCACCCAUGUUAAGUAUUGUGGUAUUUUGUUCGUCUUAA [JR_SHM208A_Sub074] (puzzle: Sensor for hsa-mir-208a) | 15.2 nM | 14.2 nM | 15.3 nM |  |  | 
GUUACAUGAGGAUCACCCAUGUAUGUGUGGGAGUAAGUGUCUUAGGAUAUCUGUUUUUUAAUUUAAGAGAAGGAAGAUUGUUGU [JMF's solution 33] (Eterna round: R96, puzzle: Same State NG 3) |  |  |  | 105 nM | 59.6 nM | 112 nM
GUUACAUGAGGAUCACCCAUGUAUGUGUGGGAGUAAGUGUCUUAGGAUAUCUAGCAUUUAAUUUAAGAGAAGGAAGAUUGUUGU [JMF's solution 51] (Eterna round: R96, puzzle: Same State NG 3) |  |  |  | 79.7 nM | 59.9 nM | 84.1 nM
